# B1: EPI-X4 JM#21 [human] / CXCR4 wt (transfected 293T cells) [human] (parent complex)
# chain 1: ILRWSRKLPCVS
# chain 2: MEGISIYTSDNYTEEMGSGDYDSMKEPCFREENANFNKIFLPTIYSIIFLTGIVGNGLVILVMGYQKKLRSMTDKYRLHLSVADLLFVITLPFWAVDAVANWYFGNFLCKAVHVIYTVNLYSSVLILAFISLDRYLAIVHATNSQRPRKLLAEKVVYVGVWIPALLLTIPDFIFANVSEADDRYICDRFYPNDLWVVVFQFQHIMVGLILPGIVILSCYCIIISKLSHSKGHQKRKALKTTVILILAFFACWLPYYIGISIDSFILLEIIKQGCEFENTVHKWISITEALAFFHCCLNPILYAFLGAKFKTSAQHALTSVSRGSSLKILSKGKRGGHSSVSTESESSSFHSS
# B2: WSC02 [human] / CXCR4 wt (transfected 293T cells) [human] (parent complex)
# chain 1: IVRWSKKVPCVS
# chain 2: B1 chain 2
# Variants of: B1
# Test: 12G5 antibody competition assay, flow cytometry on transfected 293T cells; 2 h incubation; IC50 set to 100 µM if above the maximally used concentration; parent: 620 nM; read off a plot
row,Variant,IC50
1,chain 2 L41A,~650 nM
2,chain 2 D97Q,~8000 nM
3,chain 2 D97S,~5400 nM
4,chain 2 D97T,~3700 nM
5,chain 2 E277A,~270 nM
6,chain 2 V112A,~3400 nM

# The remaining lines, values ahead:
row,IC50,Variant
1,~1800 nM,chain 2 D97E
2,~220 nM,chain 2 D262A
3,~630 nM,"chain 2 L41A, chain 2 V112A"
4,~460 nM,"chain 2 D97E, chain 2 V112A"
5,~380 nM,"chain 2 D97E, chain 2 V112L"
6,~400 nM,chain 2 V112L

# Variants of: B2
# Test: 12G5 antibody competition assay, flow cytometry on transfected 293T cells; 2 h incubation; IC50 set to 1000 µM if above the maximally used concentration; parent: 1e+03 nM; read off a plot
row,Variant,IC50
1,"chain 2 L41A, chain 2 V112A",~4800 nM
2,chain 2 E277A,~750 nM
3,chain 2 V112A,~600 nM
4,chain 2 D97S,~320000 nM
5,chain 2 D97N,~380000 nM
6,chain 2 D97T,~30000 nM
7,chain 2 D187E,~420 nM
8,chain 2 D262A,~450 nM
9,"chain 2 D97E, chain 2 V112A",~1700 nM

# Second part, the variant after the results:
row,IC50,Variant
1,~400 nM,chain 2 V112L
2,~8000 nM,chain 2 D97E
3,~690000 nM,chain 2 D97Q
4,~1500 nM,chain 2 L41A
5,~1700 nM,"chain 2 D97E, chain 2 V112L"
